Test results: US20090274696A1, “METHODS FOR TREATING INFLAMMATION” (WYETH, priority 2008, published 2009)

Experiments:
[1] = test system: tracheal smooth muscle (TSM) of mouse tracheal rings; assay: CCh-evoked force generation in cultured tracheal rings; format: cell-based; conditions: for Maximal tensions (%), CCh-evoked force generation: PBS-treated rings 100±8.39; for TSM sensitivity to CCh, LogEC50: Mean ± SE, N=6
Protocol: Experimental animals were sacrificed by CO2 asphyxiation. Tracheas were surgically excised and cleaned of adherent connective tissue. Each trachea was sectioned into rings 3-4 mm in length and cultured in DMEM containing 1.0 M HEPES, 1.0 M NaOH, 5% of heat-inactivated FBS (Hy-Clone, Logan, Utah), 0.2M glutamine, 1.0 M CaCl2, 2.5 μg/ml fungizone, 5 μg/mL insulin, 100 U/mL penicillin and 100 μg/mL streptomycin) (DMEM-5%) for 24 hours. For in vitro experiments, the tracheal rings were cultured in DMEM in the absence and presence of either 10 or 100 nM recombinant FIZZ1 (Leinco Technologies, USA) for 24 hours.
(§1) Trachea were supported longitudinally by a plexiglas rod with a stainless steel pin into the base of a double-jacketed, glass organ bath filled with 10 mL of Krebs-Henseleit (K-H) solution (37° C.) of the following composition: 118 mM NaCl; 4.7 mM KCl; 1.2 mM KH2PO4; 11.1 mM Dextrose; 1.2 mM MgSO4; 2.8 mM CaCl2; and 25 mM NaHCO3. The solution was maintained at a pH of 7.40-7.45 and continuously gassed with a mixture of 5% CO2 and […] for the duration of each experiment. […] Initial tensions of TSM were set at approximately 0.5 g and maintained for 1 hour. Agonists were given after a steady state of tension had been reached.
[CCh]-response curves at the doses ranging from 3×10^−8 to 10^−5 M were completed in tracheal rings in absence and presence of either FIZZ1 or LPS (0.1 ng/mL). Concentrations of agonist were increased only when force responses to the previous concentration had stabilized. To examine TSM relaxant responses to isoprenaline (ISO), tracheal rings were first contracted by an addition of 1.0 μM CCh (Sigma, USA). Once the contraction had stabilized, ISO (Sigma, USA) was introduced into each bath at increasing concentrations (3×10^−8-10^−5 M). […] In an additional experiment, the effect of FIZZ1 protein on the CCh-mediated force response was verified using 100 nM heat-inactivated FIZZ1 (natural and recombinant FIZZ1 solution heated at 70° C. for 60 min). Their dose-response curves were obtained as above. Fresh drug solutions such as CCh and ISO were made up on the day of the experiment. Doses of the above agents refer to the final bath concentration.
(§2) At the end of each force measurement experiment, tracheas were blotted on a gauze pad and weighted. Results were calculated as milligram of tension per milligram of TSM weight (mg/mg) and expressed as an individual percentage (%) of 10 μM CCh- or 200 μM papaverine-induced tension response in PBS-treated trachea. For the control group, CCh (papaverine)-mediated responses were normalized to the mean value of the maximal responses.

[2] = test system: TSM of fresh tracheal rings; assay: Force response of fresh tracheas from intranasally challenged mice; format: in vivo, mouse; conditions: intranasal once a day×5 days, 100 nM rFIZZ1 or 0.1 ng/ml LPS; 24 hours after last treatment; PBS 100.00±14.63; N=5
Protocol: For some experiments, ex vivo TSM tensions of fresh tracheal rings and BAL cell counts were measured at 24 hours after the last treatment of mice receiving an intranasal dose of either PBS, 0.1 ng/m: LPS or 100 nM rFIZZ1 (once a day×5 days).
as §1, §2

[3] = test system: airway epithelium of cultured trachea; assay: Histological examination of tracheal rings and airway epithelium; format: cell-based, mouse; conditions: cultured overnight with FIZZ1 100 nM or LPS 0.1 ng/mL
Protocol: Histological examination of the structure of the airway and the status of the airway epithelial layer was performed in whole/sectional fresh trachea and as well as trachea cultured overnight with and without 100 nM FIZZ1. To understand the role of airway epithelium in regulating contractility of TSM, we measured the contractile response of tracheal rings after the epithelium was mechanically removed. Briefly, airway epithelial cells were removed by gently rubbing the intraluminal surface with polyethylene tubing (Becton Dickinson & Company, MD USA) connected to a Precision Glide needle (30G1/2) followed by perfusion with 1.0 ml air bubbles and then 1.0 ml K-H solution (re). All of the experimental tracheas were stained with H & E solution (CAT hematoxylin, Edgar Degas Eosin Working Solution, Biocare Medical, Concord, Calif.) and photographed under a light microscope at ×4.0 and ×20 magnification. Tracheal morphometric analysis was performed using a computer-based image analysis system consisting of a Nikon Eclipse E800 microscope (Melville, N.Y. USA) with a SPOT RT Slider camera (Diagnostic Instruments, Inc., Sterling Heights, Mich. USA).

[4] = test system: mouse tracheal epithelium cells (MTEC); assay: MTEC apoptosis, Cell Death Detection ELISAplus; format: cell-based
Protocol: MTEC culture was performed by following the protocol of You et al. (“Growth and differentiation of mouse tracheal epithelial cells: selection of a proliferative population,” Am J Physiol Lung Cell Mol Physiol, 2002, 283:L 1315-1321) with minor modification. Briefly, tracheas were incubated in 1.5 mg/mL pronase (Roche Molecular Biochemicals) for 18 h at 4° C. Cells were treated with 0.5 mg/mL crude pancreatic DNase I (Sigma-Aldrich) on ice for 5 min. After incubation in tissue culture plates for 3-4 h in 5% CO2 at 37° C., nonadherent cells were incubated in a plate coated with type I rat tail collagen (BD Biosciences) in modified BEBM (Lonza, Md. USA) containing 10 μg/ml insulin, 5 μg/ml transferrin, 25 ng/ml epidermal growth factor, 5 μg/ml epinephrine and 30 μg/ml bovine pituitary extract, 0.5 nM Hydrocortisone, 25 ng/ml hEGF, 15 nM Triiodothyronine, 0.25 μg/ml Gentamicin/amphotericin-B and 0.01 μM retinoic acid in 5% CO2 at 37° C. […]
Apoptotic MTEC death was examined using Cell Death Detection ELISAplus (Roche) according to the manufacturer's instructions and calculated as an index of a fold change over a control. […] Quantitation of histone-associated-DNA-fragments in supernatants of MTEC cultures (5×10^4/mL) treated with PBS, 0.1 ng/mL LPS or 100 nM rFIZZ1 was performed at an absorbance of 405-490 nm.

B1: rFIZZ1: recombinant FIZZ1 (Leinco Technologies), mouse FIZZ1 protein, resistin-like molecule-α (protein, listed as Mus musculus)
chain: MKTTTCSLLICISLLQLMVPVNTDETIEIIVENKVKELLANIPANYPSTVTKTLSCTSVKTMNRWASCPAGMTATGCACGFACGSWEIQSGDTCNCLCLLV
modifications: (1)..(101) Murine FIZZ1 polypeptide
[1]; 10 nM rFIZZ1, cultured 24 hours, n=6
  Maximal tensions (%), CCh-evoked force generation: 117.21±7.87%
[1]; 100 nM rFIZZ1, cultured 24 hours, n=6
  Maximal tensions (%), CCh-evoked force generation: 144.16±15.77%
[1]; FIG. 4B, 100 nM heat-inactivated or native rFIZZ1, 0.1 ng/mL LPS, PBS 100±4.82, n=6
  maximal responses (%) of the tracheal rings, CCh-evoked: 135.67±9.02%
[1]; trachea treated with FIZZ1 10 nM
  TSM sensitivity to CCh, LogEC50: −0.96 ± 0.05 μM
[1]; trachea treated with FIZZ1 100 nM
  TSM sensitivity to CCh, LogEC50: −0.99 ± 0.03 μM
[2]
  Maximal tensions (%) of TSM, CCh-evoked, fresh trachea: 147.78±18.57%
[3]
  smooth muscle layers, histology: clear and histologically intact
[3]; vs PBS
  epithelial layer of tracheal rings, histology: thinner and some of airway epithelium was denuded
[4]; 100 nM rFIZZ1, all time points, compared to LPS treatment, N=3
  MTEC apoptosis (apoptosis index): significant increased
[4]; FIZZ1-treated MTEC
  start of increase in cell death, time of incubation: 3 h
